Ends that are not written are not given here.
Molecular target: T1, N-terminally biotinylated recombinant human PADI4 (bio-His-PADI4) (human, UniProt Q9UM07 1-663, biotin on the N-terminal Avi-Tag (BirA))
Test: SPR

T1 sequence (Q9UM07 whole entry): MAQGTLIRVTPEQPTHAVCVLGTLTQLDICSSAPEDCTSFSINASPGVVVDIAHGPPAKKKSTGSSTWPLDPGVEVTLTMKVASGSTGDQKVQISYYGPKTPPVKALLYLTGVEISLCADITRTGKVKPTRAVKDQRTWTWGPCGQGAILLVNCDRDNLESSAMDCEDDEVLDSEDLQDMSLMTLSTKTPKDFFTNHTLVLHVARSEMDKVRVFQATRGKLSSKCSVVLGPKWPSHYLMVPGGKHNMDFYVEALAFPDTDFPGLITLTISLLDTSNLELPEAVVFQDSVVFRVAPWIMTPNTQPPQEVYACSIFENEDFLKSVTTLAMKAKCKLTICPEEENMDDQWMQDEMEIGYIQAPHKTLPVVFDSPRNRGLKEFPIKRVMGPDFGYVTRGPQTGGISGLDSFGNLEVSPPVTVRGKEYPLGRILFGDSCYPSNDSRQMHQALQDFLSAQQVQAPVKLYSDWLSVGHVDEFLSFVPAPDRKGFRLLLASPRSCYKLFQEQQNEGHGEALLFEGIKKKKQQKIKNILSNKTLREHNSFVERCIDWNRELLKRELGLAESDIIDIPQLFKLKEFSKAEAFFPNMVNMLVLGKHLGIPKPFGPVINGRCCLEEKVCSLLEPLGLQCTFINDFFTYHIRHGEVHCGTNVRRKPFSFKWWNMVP

Binder	Kd [nM]
YRDHHHRHPKYCG [PADI4_3_Y6H]	30
YRDHHYNHPKYCG (as PADI4_3: D-tyrosine at position 1; thioether cyclisation between the N-terminus and the cysteine side chain; C-terminal amide) [PADI4_3 variant with R7 replaced by asparagine]	41
YRDRHYRHPIYCG (D-tyrosine at position 1; N-terminus joined to the side chain of Cys12 by a thioether bond (cyclic); C-terminal amide) [PADI3_H4R_K10_I]	7
YRDHHYAHPKYCG (as PADI4_3: D-tyrosine at position 1; thioether cyclisation between the N-terminus and the cysteine side chain; C-terminal amide) [PADI4_3 variant with R7 replaced by alanine]	8
YRDHHYRHPKYCG [PADI4_3_dY1(OMe)Y]	23
YRDHHYWHPKYCG (as PADI4_3: D-tyrosine at position 1; thioether cyclisation between the N-terminus and the cysteine side chain; C-terminal amide) [PADI4_3 variant with R7 replaced by tryptophan]	6
YRDHHYRHPVYCG [PADI4_3_K10V]	5
YRDHHYRHPIYCG [PADI4_3_K10I]	4

Molecular target: T1, N-terminally biotinylated recombinant …
Test: SPR
Remark: another data set of the same source

Binder	Kd [nM]
YESCKYRQVLQL (as PADI4_11: thioether cyclisation between the N-terminus and the side chain of C4; C-terminal amide) [PADI4_11 analogue with R5 replaced by lysine]	1400
YDSCRYRQVLQL (as PADI4_11: thioether cyclisation between the N-terminus and the side chain of C4; C-terminal amide) [PADI4_11 analogue with E2 replaced by aspartic acid]	41000
YESCRYRAVLQL [PADI4_11 Q8A]	500
YESCRYRQVAQL [PADI4_11 L10A]	300
YESCRYAQVLQL (as PADI4_11: thioether cyclisation between the N-terminus and the side chain of C4; C-terminal amide) [PADI4_11 analogue with R7 replaced by alanine]	4000
YESCRYRQALQL [PADI4_11 V9A]	14000
YESCRARQVLQL [PADI4_11 Y6A]	13000
YEACRYRQVLQL [PADI4_11 S3A]	160
YESCRYRQVLAL [PADI4_11 Q11A]	310
YQSCRYRQVLQL (as PADI4_11: thioether cyclisation between the N-terminus and the side chain of C4; C-terminal amide) [PADI4_11 analogue with E2 replaced by glutamine]	20000
YESCRYKQVLQL (as PADI4_11: thioether cyclisation between the N-terminus and the side chain of C4; C-terminal amide) [PADI4_11 analogue with R7 replaced by lysine]	700
YESCRYRQVLQL (not fully specified; L-tyrosine at position 1; cyclised via a thioether bond between the N-terminus (chloroacetylated) and the side chain of C4; C-terminal amide) [PADI4_11]	500
YESARYRQVLQL-NH2 [PADI4_11 analogue with C4 replaced by alanine]	118000
AESCRYRQVLQL [PADI4_11 Y1A]	11100
YESCRYRQVLQA [PADI4_11 L12A]	5100
YASCRYRQVLQL (as PADI4_11: thioether cyclisation between the N-terminus and the side chain of C4; C-terminal amide) [PADI4_11 analogue with E2 replaced by alanine]	114000
YESCRY [11B]	> 2000
YESCAYRQVLQL (as PADI4_11: thioether cyclisation between the N-terminus and the side chain of C4; C-terminal amide) [PADI4_11 analogue with R5 replaced by alanine]	34000

— article PMC11555231 (2024)
